Data reported in article doi:10.1101/2023.03.17.533092 (bioRxiv, 2023).

B1: ADAH14 (VHH)
VHH: QVQLQESGGGLVQAGGSLRLSCAASGSYFFHALMGWFRQAPVKEREFVASITAVPGATYYRRCTDSVKGRFTISRDNAKNTVYLQMNSLKPEDTAVYYCALATHSNRHTPITYWGQGTQVTVSS
B2: ADAH15 (VHH)
VHH: QVQLQESGGGLVQAGGSLRLSCAASGTTYLAANMGWFRQAPGKEREFVAAITFFHNPTVYYADSVKGRFTISRDNAKNTVYLQMNSLKPEDTAVYYCAATVLVRDRIHFSHSIGIRYWGQGTQVTVSS

Experiments:
[1] = target: SARS-CoV-2 spike glycoprotein (S) (SARS-CoV-2 (Wuhan), UniProt P0DTC2)
[2] = target: SARS-CoV-2 Wuhan S RBD, biotinylated (SARS-CoV-2 (Wuhan), UniProt P0DTC2, biotin (biotinylated; site not stated))

Row | Binder | binding result [1] | binding result [2]
1 | B1 | binds | binds
2 | B2 | binds | binds
